Assay results reported in patent US20240025971A1 (ATRECA, published 2024).

B1: AB-009239 (antibody, V domains shown)
VH: QVHLEESGGGVVQPGRSLRLSCAASGFTFSGYAMHWVRQAPGKGLAWVAVISYDGTNKYYTDSVKGRFSISRDNSNNTLYLQMNSLRTEDTALYYCARALTGYYGQFDFDSWGQGTLVTVSS
VL: DVVMTQSPLSLPVTLGQPASISCRSSQSLVHSDGHTYLNWIQQRPGQSPRRLIYKVSNRDSGVPDRFSGSGSGTDFTLKISRVEADDVGIYYCVQGTHWPPWTFGQGTKVEIK
notes: human IgG1
B2: AB-009244 (antibody, V domains shown)
VH: EVQLVESGGGLVQPGGSLRLSCAASGFAFNTYGINWVRQAPGKGLEWVSFISSRSTTIHYADSVRGRFTISRDNAKNSLYLQMNNLRDEDTAVYYCARDLLIWFGETGAFDIWGQGTMVTVSS
VL: EVVMTQSPATLSVSSGERVTLSCRASQSVSNNLAWYQQKPGQAPRLLIYGASTRATGFPARFSGSGSGTEFTLTISSLQSEDFAVYYCQQYNIWPPGTFGQGTKLEIK
notes: human IgG1
B3: AB-009174 (antibody, V domains shown)
VH: QVQLQQWGAGLLKPSETLSLTCAVYGESFSGYYWNWIRQPPGKGLEWIGEIDQSGSTNYNPSLKSRVTISVDTSKNQFSLKLTSVTAADTAVYYCARVSGRMQLWLRAGYMDVWDKGTTVTVSS
VL: QSALTQPASVSGSPGQSITISCTGTSSDVGRYNYVSWYQQHPGKAPKLMIYEVSNRPSGVSNRFSGSKSGNTASLTISGLQAEDEADYYCSSYTTSSTRVFGGGTKLTVL
notes: human IgG1
B4: AB-009251 (antibody, V domains shown)
V domain 1: QVQLVQSGAEVKKPGASVKVSCKTSGYTFTTFYIHWVRQVPGQGLEWMGIINPDGGSTNYAQEFQARVTMTTDTSTSTAYMELSSLRFEDTAVFYCATSLGAPPGLSPRTGPQRRGPPGFDFWGQGTLITVSA
V domain 2: QSVLTQPPSVSGAPGQRVTISCTGSSSNIGAGYDVHWYQQLPGTAPKLLIFDNNNRPSGVPYRFSGSRSGTSASLAITGLQPEDEADYYCQSYDSSLSGRVFGGGTRVTVL
notes: human IgG1
B5: AB-009110 (antibody, V domains shown)
VH: QVQLVQSGAEVKEPGASVKVSCNASGYIFTSYGISWVRQAPGQGLEWVGWISGNNGNTNYAQKFQGRVTLTTDTSTSTAYLELRSLTSADTGVYFCARARLPSAYWGPGTLLTVSS
VL: EILLTQSPATLSVSPGERGSLSCRASQSVGTNLAWYQQKPGQAPRLLIYGASARATGIPARFSGSGSGTEFTLTISSLQSEDFGVYYCQQYNDWPPWTFGQGTKVEIK
notes: human IgG1
B6: AB-009237 (antibody, V domains shown)
VH: QVQLLQSGAEVKKPGASVSVSCKASGFTFTSYYFHWVRQAPGQGLEWMGIVSPAGGSTNYAQKFQGRVTMTRDTSTSTVHMELRNVRYDDTAVFYCARSVYCSSPSCPHGMDVWGPGTMVTVSS
VL: DIQVTQSPSTLSASVGDRVTITCRASQSILTYLAWYQQKPGKAPNLLIYKASNLQSGVPSRFSGSGSGTEFTLTISSLQPDDFATYHCQQYKSYPFSFGQGTKLAIK
notes: human IgG1
B7: AB-009202 (antibody, V domains shown)
VH: QVQLVESGGGVVQPGRSLRLSCAASGFTFSSYGMHWVRQAPGKGLEWVAVIWYDGSNKYYADSVKGRFTISRDNSKNTLYLQMNSLRAEDTAVYYCARDGGPEYYFDYWGQGTLVTVSS
VL: SYELTQPPSVSVSPGQTARITCSGDALPKQYAYWYQQKPGQAPVLVIYKDSERPSGIPERFSGSSSGTTVTLTISGVQAEDEADYYCQSADSSGTYNVVFGGGTKLTVL
notes: human IgG1
B8: AB-009080 (antibody, V domains shown)
VH: QVQLQQWGAGLLKPSETLSLTCAVYGGSFSGYYWSWIRQPPGKGLEWIGEINHSGSTNYNPSLKSRVTISVDTSKNQFSLKLSSVTAADTAVYYCARGLPVTTFYYYYYGMDVWGQGTTVTVSS
VL: not shown
notes: human IgG1
B9: AB-009221 (antibody, V domains shown)
VH: EVQLVESGGGLVQPGGSLRLSCAASGFTVSSNYMSWVRQAPGKGLEWVSVIYSGGSTYYADSVKGRFTISRHNSKNTLYLQMNSLRAEDTAVYYCARDRNAFDIWGQGTMVIVSS
VL: DIQMTQSPSSLSASVGDRVSITCQASQDISNDLNWYQQKPGKAPKLLVYDASKLETGVPPRFSGSGSGTDFTFTISSLQPEDIATYYCQQYDNLPLYSFGQGTKLEIK
notes: human IgG1
B10: AB-009078 (antibody, V domains shown)
VH: QITLKESGPTLVKPTQTLTLTCTFSGFSLSTSGVGVGWIRQPPGKALEWLALIYWDDDKRYSPSLKSRLTITKDTSKNQVVLTMTNMDPVDTATYYCAHRPGDFWSGYYRYWGQGTLVTVSS
VL: not shown
notes: human IgG1
B11: AB-009226 (antibody, V domains shown)
VH: not shown
VL: QSALTQPASVSGSPGQSITISCTGTSSDVGGYNYVSWYQQHPGKAPKLMIYEVSNRPSGVSNRFSGSKSGNTASLTISGLQAEDEADYYCSSYTSSSTLYVFGTGTKVTVL
notes: human IgG1
B12: AB-009106 (antibody, V domains shown)
VH: QVQLAQSGAEVKRPGASVKVSCKASGFDLTTYGVGWVRQAPGQGLEWMGWISGSSGDTHYAQQFQDRVTMTTDTPTSTAYMELRSLRSDDTAVYYCVRENIAHYGSRTFLVRYYRGMDVWGQGTTVTVAS
VL: QSALTQPASVSGSPGQSITITCTGSSSDIGGFDFVSWYQQYPGKAPKLVISEVTNRPSGVSIRFSGSKSGNTASLTISGLQAEDEADYYCSSYASSYPTTNTRVFGTGTKVTVL
notes: human IgG1
B13: AB-009231 (antibody, V domains shown)
VH: EVQLVESGGGLVQPGGSLRLSCAASGFTFSSYWMSWVRQAPGKGLEWVANIKQDGSEKYYVDSVKGRFTISRDNAKNSLYLQMNSLRAEDTAVYYCARVSMRFLEWSFYYYYYMDVWGKGTTVTVSS
VL: SSELTQDPAVSVALGQTVRITCQGDSLRSYYASWYQQKPGQAPVLVIYGKNNRPSGIPDRFSGSSSGNTASLTITGAQAEDEADYYCNSRDSSGNHLGVVFGGGTKLTVL
notes: human IgG1
B14: AB-009083 (antibody, V domains shown)
VH: EVHLLESGGGLVQPGGSLTLTCAASGFSFGNYVMGWVRQAPGKGLEWVSSIFGSGANPHYGGSVKGRFTISRDNSQNTLFLQMDSLTAEDTAVYYCARDGGTMVGGIITGGFNYFDSWGQGTLVTVSS
VL: EIVLTQSPASLSLSPGGWATLSCRASRSIGNSLAWYQQRPGQAPRLLIYDASNRATGIPARFSGSGSGTDFTLTISSLEPEDFAIYYCQQRNSWPPLYTFGQGTKLEIK
notes: human IgG1

Assays:
SARS-CoV-2 S1 protein = molecular target: T1, SARS-CoV-2 S1 protein (SARS-CoV-2, UniProt P0DTC2 16-685); test: BLI
T1 construct: domain: S1 protein; also called S1 monomer

SARS-CoV-2 S2 protein = molecular target: T2, SARS-CoV-2 S2 protein (SARS-CoV-2, UniProt P0DTC2 686-1213); test: BLI
T2 construct: domain: S2 protein; also called S2 monomer

[1] = molecular target: SARS-CoV-2 Nucleocapsid (N) protein (SARS-CoV-2, UniProt P0DTC9 1-419); test: BLI
[2] = molecular target: T3, SARS-CoV-2 Spike (S) trimer (SARS-CoV-2, UniProt P0DTC2 14-1208); test: ELISA, S trimer coated, 1:50 dilution
T3 construct: also called Spike trimer

[3] = molecular target: T4, SARS-CoV-2 Receptor Binding Domain (RBD) (SARS-CoV-2, UniProt P0DTC2 319-541); test: BLI
T4 construct: also called RBD protein

Binder | binding result (SARS-CoV-2 S1 protein) | binding result (SARS-CoV-2 S2 protein) | binding result [1] | Optical Density (OD; 450 nm) [2] [OD450] | binding result [3]
B1 | no binding (tested: 300 nM) | no binding (tested: 300 nM) | no binding (tested: 300 nM) | – | –
B2 | no binding (tested: 300 nM) | no binding (tested: 300 nM) | no binding (tested: 300 nM) | – | –
B3 | no binding (tested: 300 nM) | no binding (tested: 300 nM) | no binding (tested: 300 nM) | – | –
B4 | – | no binding (tested: 300 nM) | no binding (tested: 300 nM) | 0.886 | –
B5 | – | – | – | 0.081 | –
B6 | no binding (tested: 300 nM) | no binding (tested: 300 nM) | no binding (tested: 300 nM) | – | –
B7 | no binding (tested: 300 nM) | no binding (tested: 300 nM) | no binding (tested: 300 nM) | – | –
B8 | – | – | – | 0.166 | –
B9 | – | no binding (tested: 300 nM) | no binding (tested: 300 nM) | – | –
B10 | no binding (tested: 300 nM) | – | – | – | no binding (tested: 300 nM)
B11 | – | – | – | 2.33 | –
B12 | – | – | – | 0.1 | –
B13 | no binding (tested: 300 nM) | no binding (tested: 300 nM) | no binding (tested: 300 nM) | – | –
B14 | – | – | – | 0.249 | –
